Source: patent US20240052042A1 (Novartis, published 2024)

T1: rNPR1-ANP complex (rat, UniProt P01160 124-151 (human entry), limits assumed)
T1 construct: rNPR1 antigen in the presence of ANP; also called rNPR1 + 100 nM ANP
T1 sequence: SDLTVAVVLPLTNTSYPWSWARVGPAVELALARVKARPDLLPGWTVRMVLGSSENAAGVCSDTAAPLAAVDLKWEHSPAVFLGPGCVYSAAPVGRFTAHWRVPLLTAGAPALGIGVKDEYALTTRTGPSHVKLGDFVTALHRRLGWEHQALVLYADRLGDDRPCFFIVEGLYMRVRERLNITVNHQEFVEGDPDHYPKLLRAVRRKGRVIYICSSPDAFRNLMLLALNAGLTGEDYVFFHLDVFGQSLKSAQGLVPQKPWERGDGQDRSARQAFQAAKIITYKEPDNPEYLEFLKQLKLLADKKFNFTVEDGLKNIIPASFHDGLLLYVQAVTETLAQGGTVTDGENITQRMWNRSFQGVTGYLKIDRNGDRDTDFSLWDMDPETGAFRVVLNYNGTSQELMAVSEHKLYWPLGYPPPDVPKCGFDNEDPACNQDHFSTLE
T1 sequence (peptide): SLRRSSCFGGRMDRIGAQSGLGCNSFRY

T2: hNPR1-ANP complex (human, UniProt P01160 124-151, limits assumed)
T2 construct: hNPR1 antigen in the presence of ANP; also called hNPR1 + 100 nM ANP
T2 sequence: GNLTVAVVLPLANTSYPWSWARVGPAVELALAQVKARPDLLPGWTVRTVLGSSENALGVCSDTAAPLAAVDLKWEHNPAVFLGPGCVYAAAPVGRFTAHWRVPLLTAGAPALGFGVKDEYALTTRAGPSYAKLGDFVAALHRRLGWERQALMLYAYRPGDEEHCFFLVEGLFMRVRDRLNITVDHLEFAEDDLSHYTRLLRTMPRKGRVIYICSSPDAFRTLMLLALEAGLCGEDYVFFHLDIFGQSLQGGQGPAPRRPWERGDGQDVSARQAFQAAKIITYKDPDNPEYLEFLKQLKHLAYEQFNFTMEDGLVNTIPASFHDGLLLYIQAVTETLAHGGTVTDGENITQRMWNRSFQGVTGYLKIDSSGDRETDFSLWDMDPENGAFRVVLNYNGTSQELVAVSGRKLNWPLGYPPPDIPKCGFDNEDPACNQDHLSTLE
T2 sequence (peptide): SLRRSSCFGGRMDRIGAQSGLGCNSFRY

T3: rat NPR1 (rNPR1) (rat, UniProt P18910 29-469, limits assumed)
T3 construct: Soluble antigen
T3 sequence: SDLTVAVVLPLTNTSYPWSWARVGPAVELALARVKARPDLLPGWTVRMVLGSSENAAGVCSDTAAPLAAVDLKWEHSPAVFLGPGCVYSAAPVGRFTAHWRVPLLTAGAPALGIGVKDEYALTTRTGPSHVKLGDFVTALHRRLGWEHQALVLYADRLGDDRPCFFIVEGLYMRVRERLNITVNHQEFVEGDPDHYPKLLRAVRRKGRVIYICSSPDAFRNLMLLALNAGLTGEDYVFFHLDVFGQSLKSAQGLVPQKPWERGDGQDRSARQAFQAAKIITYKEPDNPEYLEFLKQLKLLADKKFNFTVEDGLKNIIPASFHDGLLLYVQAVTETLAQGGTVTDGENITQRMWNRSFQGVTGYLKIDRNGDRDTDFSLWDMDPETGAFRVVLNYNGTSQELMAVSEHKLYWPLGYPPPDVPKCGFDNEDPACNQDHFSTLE

T4: human Natriuretic Peptide Receptor 1 (hNPR1) (human, UniProt P16066 33-473, limits assumed)
T4 construct: pannings used NPR1-hFc; also called NPR1-hFc
T4 sequence: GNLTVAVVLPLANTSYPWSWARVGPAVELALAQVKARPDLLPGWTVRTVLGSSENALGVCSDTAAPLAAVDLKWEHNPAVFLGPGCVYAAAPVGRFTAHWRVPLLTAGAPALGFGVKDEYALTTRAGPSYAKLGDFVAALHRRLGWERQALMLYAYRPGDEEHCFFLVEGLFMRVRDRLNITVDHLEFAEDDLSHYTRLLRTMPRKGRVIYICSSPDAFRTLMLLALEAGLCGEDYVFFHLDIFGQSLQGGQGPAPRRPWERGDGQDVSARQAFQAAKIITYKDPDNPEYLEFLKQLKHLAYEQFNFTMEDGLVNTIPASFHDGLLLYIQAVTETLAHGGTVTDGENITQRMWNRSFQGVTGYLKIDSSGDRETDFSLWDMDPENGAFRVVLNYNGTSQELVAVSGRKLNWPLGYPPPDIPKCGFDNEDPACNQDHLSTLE

B1: YY03 (FabCys format) (Fab, V domains shown)
VH: EVQLLESGGGLVQPGGSLRLSCAASGFTFSSYAISWVRQAPGKGLEWVSAISGSGGSTYYAESVKGRFTISRDNSKNTLYLQMNSLRAEDTAVYYCARESGYVYYLKFDYWGQGTLVTVSS
VL: DIQMTQSPSSLSASVGDRVTITCRASQSISSYLNWYQQKPGKAPKLLIYAASSLQSGVPSRFSGSGSGTDFTLTISSLQPEDFATYYCQQHVRVPITFGQGTKVEIK
notes: Monovalent FabCys
B2: ZZ15 (FabCys format) (Fab, V domains shown)
VH: EVQLLESGGGLVQPGGSLRLSCAASGFTFASYAITWVRQAPGKGLEWVSTISGSGVYTYYAESVKGRFTISRDNSKNTLYLQMNSLRAEDTAVYYCARPYLGDRRSYGFDHWGQGTLVTVSS
VL: QSALTQPASVSGSPGQSITISCTGTSSDVGSYNLVSWYQQHPGKAPKLMIYEGSKRPSGVSNRFSGSKSGNTASLTISGLQAEDEADYYCSSYGFHIVVVVFGGGTKLTVL
notes: Monovalent FabCys
B3: ZZ16 (FabCys format) (Fab, V domains shown)
VH: EVQLLESGGGLVQPGGSLRLSCAASGFTFGTYAMTWVRQAPGKGLEWVSSISASGYYANYAGSVKGRFTISRDNSKNTLYLQMNSLRAEDTAVYYCARPYLGDRRSYGFDHWGQGTLVTVSS
VL: QSALTQPASVSGSPGQSITISCTGTSSDVGSYNLVSWYQQHPGKAPKLMIYEGSKRPSGVSNRFSGSKSGNTASLTISGLQAEDEADYYCSSYGFHIVVVVFGGGTKLTVL
notes: Monovalent FabCys

Assays:
rNPR1-ANP complex [1] = target: T1, rNPR1-ANP complex; assay: FabCys affinity determination
hNPR1-ANP complex [2] = target: T2, hNPR1-ANP complex; assay: FabCys affinity determination
rat NPR1 (rNPR1) [3] = target: T3, rat NPR1 (rNPR1); assay: FabCys affinity determination
hNPR1-ANP complex [4] = target: T2, hNPR1-ANP complex; assay: SET, FabCys
[5] = target: T4, human Natriuretic Peptide Receptor 1 …; assay: SET, FabCys
hNPR1-ANP complex [6] = target: T2, hNPR1-ANP complex; assay: Octet, FabCys
[7] = target: T4, human Natriuretic Peptide Receptor 1 …; assay: Octet, FabCys
rNPR1-ANP complex [8] = target: T1, rNPR1-ANP complex; assay: SET, FabCys
rat NPR1 (rNPR1) [9] = target: T3, rat NPR1 (rNPR1); assay: SET, FabCys

Binder | Kd (rNPR1-ANP complex [1]) | Kd (hNPR1-ANP complex [2]) | Kd (rat NPR1 (rNPR1) [3]) | Kd (hNPR1-ANP complex [4]) | Kd [5] | Kd (hNPR1-ANP complex [6]) | Kd [7] | Kd (rNPR1-ANP complex [8]) | Kd (rat NPR1 (rNPR1) [9])
B1 | 0.1 nM | 0.1 nM | 0.1 nM | – | – | – | – | – | –
B2 | – | – | – | 0.074 nM | 0.053 nM | 0.19 nM | 0.26 nM | – | –
B3 | – | – | – | 0.034 nM | 0.04 nM | 0.11 nM | 0.14 nM | 51 nM | 62 nM
